# Assay results: paper PMC10142695, “Expression and Characterization of 3,6-Dihydroxy-picolinic Acid Decarboxylase PicC of Bordetella bronchiseptica RB50” (Microorganisms, 2023)
# Substrate: O=C(O)c1nc(O)ccc1O
# Test: purified protein
# Type: biochemical, Bordetella bronchiseptica
# Settings: 50 mM PBS pH 7.4 (unit definition says pH 7.0), 25 °C, 0 to 300 μM 3,6DHPA, no added metal stated
protein,measurement,value
PicCRB50 (Bordetella bronchiseptica RB50) (protein) MTKVRKIAFEEHFTAVGFGDYSKAFVQHLDPGFAAELGARLTDFGAGRLAEMDAAGIDYAILSQTGPGVQGEPDAAVALRRARENNDFLAERIARHPDRFGGFAALPMHDPKTAAAELTRAVRELGFKGSLVNGHTNGVYYDDPAYDAFWEQMQELDVPLYLHPFDAYVLPHAYKGHPELAGATWGWGVETGTHALRLLFGGVFDRFPKLKIILGHMGEGLPFQRWRFDSRFAAYPYGVKLQRAPSEYIGSNILITTSGVCSHPTLVGAIAEMGAEAVMFSIDYPYESTALAVEFIESAPLDAATRELVCYGNAARLFKL,Km,20.41 ± 2.60 µM
same,kcat,7.61 ± 0.53 S^−1
